# Assay results reported in patent US20170015742A1 (published 2017).
# Residue numbers refer to the chain shown, from its start.
# B1: hBDI-9E8.11 (antibody, V domains shown)
# VH: EVQLVESGGGLVQPGGSLRLSCAFSGFSLSTYGMGVGWIRQAPGKGLEWLANIWWDDDKYYNPSLKNRLTISKDTSKNQAYLQINSLRAEDTAVYYCARIESIGTTYSFDYWGQGTLVTVSS
# VL: DFVLTQSPDSLAVSLGERATINCERSSGDIGDSYVSWYQQKPGQPPKNVIYADDQRPSGVPDRFSGSGSGNSASLTISSLQAEDVAVYFCQSYDINIDIVFGGGTKVEIK
# notes: Humanized IgG
# B2: hBDI-9E8.12 (antibody, V domains shown)
# VH: B1 VH
# VL: DFQLTQSPSSLSASVGDRVTITCERSSGDIGDSYVSWYQQKPGKAPKNVIYADDQRPSGVPSRFSGSGSGNSASLTISSLQPEDFATYYCQSYDINIDIVFGQGTKVEIK
# notes: Humanized IgG
# B3: hBDI-9E8.5 (antibody, V domains shown)
# VH: EVTLRESGPALVKPTQTLTLTCTFSGFSLSTYGMGVGWIRQPPGKGLEWLANIWWDDDKYYNPSLKNRLTISKDTSKNQAVLTITNMDPVDTATYYCARIESIGTTYSFDYWGQGTMVTVSS
# VL: NFMLTQPHSVSESPGKTVTISCERSSGDIGDSYVSWYQQRPGSSPTTVIYADDQRPSGVPDRFSGSIDSSSNSASLTISGLKTEDEADYYCQSYDINIDIVFGGGTKLTVL
# notes: Humanized IgG
# B4: hBDI-5H1.1 (antibody, V domains shown)
# VH: EVTLRESGPALVKPTQTLTLTCTFSGFSLSTFGMGVGWIRQPPGKALEWLANIWWDDDKYYNPSLKNRLTISKDTSKNQVVLTMTNMDPVDTATYYCARISTGISSYYVMDAWGQGTTVTVSS
# VL: B3 VL with S32T, A51G, D52N, I96S, N97D
# notes: Humanized IgG
# B5: hBDI-9E8.9 (antibody, V domains shown)
# VH: B3 VH with G46A, M117T
# VL: B1 VL
# notes: Humanized IgG
# B6: hBDI-9E8.10 (antibody, V domains shown)
# VH: B3 VH with G46A, M117T
# VL: B2 VL
# notes: Humanized IgG
# B7: hBDI-9E8.3 (antibody, V domains shown)
# VH: B3 VH with G46A, A80V, I84M
# VL: EIVLTQSPGTLSLSPGERATLSCERSSGDIGDSYVSWYQQKPGQAPRLLIYADDQRPSGIPDRFSGSGSGTDFTLTISRLEPEDFAVYYCQSYDINIDIVFGGGTKVEIK
# notes: Humanized IgG
# B8: hBDI-5H1.2 (antibody, V domains shown)
# VH: B4 VH
# VL: B3 VL with S32T, S44P, T47N, A51G, D52N, Y90F, I96S, N97D
# notes: Humanized IgG
# B9: hBDI-9E8.6 (antibody, V domains shown)
# VH: B3 VH
# VL: B3 VL with S44P, T47N, Y90F
# notes: Humanized IgG
# B10: hBDI-9E8.4 (antibody, V domains shown)
# VH: B3 VH with G46A, A80V, I84M
# VL: B7 VL with I2F, L49V
# notes: Humanized IgG
# B11: hBDI-5H1.5 (antibody, V domains shown)
# VH: B4 VH with R5K, V80A, M84I
# VL: B3 VL with S32T, A51G, D52N, I96S, N97D
# notes: Humanized IgG
# B12: hBDI-9E8.7 (antibody, V domains shown)
# VH: B3 VH
# VL: B7 VL
# notes: Humanized IgG
# Molecular target: T1, Human PDGF-BB (human, UniProt P01127 82-190)
# T1 construct: Recombinant human PDGF-BB, a homodimer of two B chains; also called hPDGF-BB; huPDGF-BB
# Test: SPR (Biacore), antibody captured via anti-human Fc, antigen in solution
# Method: For example, approximately 9000 RU of goat anti-human Fc specific polyclonal antibody (Thermo Fisher Scientific Inc., Rockford, Ill.) diluted in 10 mM sodium acetate (pH 4.5) is directly immobilized across a CM5 research grade biosensor chip using a standard amine coupling kit according to manufacturer's instructions and procedures at 25 μg/ml. Unreacted moieties on the biosensor surface were blocked with ethanolamine. For kinetic analysis, rate equations derived from the 1:1 Langmuir binding model were fitted simultaneously to multiple antigen injections (using global fit analysis) with the use of Scrubber 2 (BioLogic Software), Biacore Biaevaluation 4.0.1 software or Biacore T100 Evaluation software. Purified antibodies or DVD-Ig molecules were diluted in running buffer for capture across goat anti-human Fc reaction surfaces. Antibodies or DVD-Ig molecules to be captured as a ligand (1 μg/ml) were injected over reaction matrices at a flow rate of 10 μl/minute. During the assay, all measurements were referenced against the capture surface alone (i.e., with no captured antibody or DVD-Ig molecule). […] The equilibrium dissociation constant KD (M) of the reaction between antibodies and the target antigen was then calculated from the kinetic rate constants by the following formula: KD=Koff/Kₒₙ. Binding was recorded as a function of time and kinetic rate constants were calculated.
# T1 sequence (P01127 82-190 limits assumed): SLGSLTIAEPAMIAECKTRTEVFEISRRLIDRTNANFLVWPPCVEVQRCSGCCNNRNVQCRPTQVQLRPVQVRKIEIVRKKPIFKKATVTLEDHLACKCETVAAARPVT
Kd [nM],kon [M⁻¹ s⁻¹],Binder
≤ 0.074,≥ 1e+07,B1
≤ 0.21,≥ 1e+07,B2
≤ 0.21,≥ 1e+07,B3
≤ 0.41,≥ 1e+07,B4
≤ 0.15,≥ 1e+07,B5
≤ 0.18,≥ 1e+07,B6
≤ 0.065,≥ 1e+07,B7
≤ 0.19,≥ 1e+07,B8
≤ 0.21,≥ 1e+07,B9
≤ 0.021,> 1e+07,B10
≤ 0.17,≥ 1e+07,B11
≤ 0.045,≥ 1e+07,B12
